In article PMC3617236:

Assays:
[1] = target: recombinant His-tagged B. malayi fructose-bisphosphate aldolase (B. malayi); assay: far-Western, overlay or dot blot; His-Bm-aldolase (3 µg per lane) run on SDS-PAGE and blotted on nitrocellulose; strips incubated with 1, 2, 5 or 10 µg/ml His-wBm0432 in overlay buffer, 3 h, room temperature; signals quantified with GeneSnap
[2] = target: recombinant His-tagged Wolbachia surface protein wBm0152 (Wolbachia endosymbiont of B. malayi (wBm)); assay: ELISA

**Q.** With “recombinant His-tagged Wolbachia surface protein wBm0432 (natural protein)” as the substance, how does the Kd [1] read?
**A.** 0.51 µM

**Q.** Which Kd [2] does the source give for “purified bovine actin (from UniProt P68138 1-377) (natural protein)” here?
**A.** 0.57 µM
